The text below walks through data of patent publication US20250043012A1.

A word on the koff: it is the first-order rate constant of dissociation. Higher therefore signals fast dissociation. As a reminder, the kon is the rate constant with which the complex forms. Low readings indicate slow association, high ones fast association.

This assay addresses human EGFR (protein used in SPR, ELISA and BLI) (human) (UniProt P00533). Kind of assay: SPR.

B1: ER-2b (antibody, part only; not given: Constant region, common trastuzumab light chain, part only)
heavy chain, part: EVQLVESGGGLVQPGGSLRLSCAASGFNIYYAAMHWVRQAPGKGLEWVAFISPYYSYTSYADSVKGRFTISADTSKNTAYLQMNSLRAEDTAVYYCARYFHSSWYESSSPRAYYPGMDYWGQGTLVTVSS
B1 yielded a koff of 5e-05 s⁻¹ and a kon of 280000 M⁻¹ s⁻¹.
